Our source for the Ki values is patent US20230033370A1 (Bicycle, published 2023).

*1 amine or outer side, *2 acyl side, *3 side chain or, on linkers, in order; H or OH if unused. Bridges are numbered along the chain shown (N, C = ends). Where no end group is shown, it is not given here. TCAN = N,N',N''-(nitrilotris(ethane-2,1-diyl))tris(2-chloroacetamide) scaffold, O=C(C[*:1])NCCN(CCNC(=O)C[*:2])CCNC(=O)C[*:3]

The Ki is a measure of affinity in units of concentration, obtained from inhibition or displacement.

In the assay the target is T1, Human IL-17A (human, UniProt Q16552 24-155).
T1 construct: Soluble IL-17A used at a fixed concentration (75 nM with tracer BCY13196) in the FP assay; also called CTLA-8
T1 sequence (looked up): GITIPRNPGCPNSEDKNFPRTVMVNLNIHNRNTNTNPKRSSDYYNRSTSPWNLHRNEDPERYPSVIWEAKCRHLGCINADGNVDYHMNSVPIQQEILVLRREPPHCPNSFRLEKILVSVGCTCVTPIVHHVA
Briefly: fluorescence polarization competition, 75 nM human IL-17A, 1 nM tracer BCY13196 as competitor, mean of n=3. As to the method:
Affinity determination by fluorescence polarization (FP) competition. Bicycles were screened to determine affinity (Ki) in a fluorescence polarisation assay where in competition with a bicycle labelled with fluorescein (referred to as tracer) with a known affinity for IL-17A. Peptides were diluted to an appropriate concentration in assay buffer (PBS+0.01% Tween20, adjusted to pH7.4 using NaOH (1M)) with a maximum of 1% DMSO, then serially diluted 1 in 2 into assay buffer. Into black 384-well low volume plates, 5 μL of diluted peptide was added to the plate followed by 10 μL of IL-17A at a fixed concentration (75 nM IL-17A for tracer BCY13196, 50 nM IL-17A for tracer BCY13351), then 10 μL tracer added to a final concentration of 1 nM. Measurements were conducted on a BMG PHERAstar FS equipped with an “FP 485 520 520” optic module which excites at 485 nm and detects parallel and perpendicular emission at 520 nm. The PHERAstar FS was set at 25° C. with 200 flashes per well and a positioning delay of 0.1 second, with each well measured at 5 to 10 minute intervals for 60 minutes. The gain used for measurements was determined at the point of experiment on a tracer alone well. Data analysis was performed in Dotmatics where mP values were fit to the Cheng Prusoff equation in order to generate a Ki value. The tracers used was BCY13196: [Fl]-[…] […]
(Polarisation of emitted light reports the rotation of a fluorescent probe.)

B1: BCY13061 (peptide)
peptide: ACPQDLELCTFLFGDCA
modifications: linker 2-9-16 via TCAN
notes: Synthetic bicyclic peptide cyclised on the TCAN scaffold
Regarding B1, the Ki was 488 nM.
